Source: the supplement of paper PMC10065799, “High-throughput profiling of sequence recognition by tyrosine kinases and SH2 domains using bacterial peptide display” (eLife, 2023)

Tests used:
[1] = system: AncSZ; assay: phosphorylation enrichment, bacterial display (enrichment ratio); higher = better substrate or ligand; peptides without Tyr show the background
[2] = target: EPHB1 (UniProt P54762); assay: as above
[3] = target: EPHB2 (UniProt P29323); assay: as above
[4] = target: FGFR1 (UniProt P11362); assay: as above
[5] = target: FGFR3 (UniProt P22607); assay: as above
[6] = system: Fer (mouse); assay: as above
[7] = target: Fes (UniProt P07332); assay: as above
Chain of Fes (P07332 whole entry, looked up): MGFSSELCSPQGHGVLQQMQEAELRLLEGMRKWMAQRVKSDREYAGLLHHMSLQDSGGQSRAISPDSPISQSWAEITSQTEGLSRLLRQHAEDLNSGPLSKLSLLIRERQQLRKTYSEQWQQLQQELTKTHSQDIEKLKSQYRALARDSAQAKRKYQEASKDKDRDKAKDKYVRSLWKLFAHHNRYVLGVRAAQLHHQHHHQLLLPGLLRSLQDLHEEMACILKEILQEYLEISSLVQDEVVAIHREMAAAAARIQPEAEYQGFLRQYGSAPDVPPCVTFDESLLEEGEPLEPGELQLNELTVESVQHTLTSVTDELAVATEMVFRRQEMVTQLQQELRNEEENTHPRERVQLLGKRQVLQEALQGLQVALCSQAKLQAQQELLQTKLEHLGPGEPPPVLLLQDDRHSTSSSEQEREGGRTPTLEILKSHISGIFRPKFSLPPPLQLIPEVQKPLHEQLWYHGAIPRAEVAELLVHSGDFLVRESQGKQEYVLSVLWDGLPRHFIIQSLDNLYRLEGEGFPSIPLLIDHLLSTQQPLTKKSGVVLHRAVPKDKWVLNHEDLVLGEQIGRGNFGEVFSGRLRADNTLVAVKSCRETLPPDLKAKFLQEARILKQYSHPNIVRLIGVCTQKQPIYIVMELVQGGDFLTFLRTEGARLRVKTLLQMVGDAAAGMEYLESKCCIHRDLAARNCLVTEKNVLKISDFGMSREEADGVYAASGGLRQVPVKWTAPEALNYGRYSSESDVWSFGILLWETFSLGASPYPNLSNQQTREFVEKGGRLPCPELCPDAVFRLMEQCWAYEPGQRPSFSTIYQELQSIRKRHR

[8] = target: Fyn (UniProt P06241); assay: as above
Chain of Fyn (P06241 whole entry, looked up): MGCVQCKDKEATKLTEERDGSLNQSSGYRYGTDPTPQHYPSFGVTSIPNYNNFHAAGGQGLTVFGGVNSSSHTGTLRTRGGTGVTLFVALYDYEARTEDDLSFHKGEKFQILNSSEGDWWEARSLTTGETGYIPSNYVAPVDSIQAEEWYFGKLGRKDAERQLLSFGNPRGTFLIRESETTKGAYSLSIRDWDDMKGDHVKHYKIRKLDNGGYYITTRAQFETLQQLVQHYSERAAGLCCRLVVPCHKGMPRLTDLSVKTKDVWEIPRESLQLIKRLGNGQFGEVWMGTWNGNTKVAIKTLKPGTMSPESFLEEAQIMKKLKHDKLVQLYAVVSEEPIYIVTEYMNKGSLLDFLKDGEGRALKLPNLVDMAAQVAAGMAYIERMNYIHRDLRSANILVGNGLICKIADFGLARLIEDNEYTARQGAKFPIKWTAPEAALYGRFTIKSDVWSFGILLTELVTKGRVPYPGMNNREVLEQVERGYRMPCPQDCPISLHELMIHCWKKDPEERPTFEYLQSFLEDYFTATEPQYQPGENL

[9] = target: Hck (UniProt P08631); assay: as above
Chain of Hck (P08631 whole entry, looked up): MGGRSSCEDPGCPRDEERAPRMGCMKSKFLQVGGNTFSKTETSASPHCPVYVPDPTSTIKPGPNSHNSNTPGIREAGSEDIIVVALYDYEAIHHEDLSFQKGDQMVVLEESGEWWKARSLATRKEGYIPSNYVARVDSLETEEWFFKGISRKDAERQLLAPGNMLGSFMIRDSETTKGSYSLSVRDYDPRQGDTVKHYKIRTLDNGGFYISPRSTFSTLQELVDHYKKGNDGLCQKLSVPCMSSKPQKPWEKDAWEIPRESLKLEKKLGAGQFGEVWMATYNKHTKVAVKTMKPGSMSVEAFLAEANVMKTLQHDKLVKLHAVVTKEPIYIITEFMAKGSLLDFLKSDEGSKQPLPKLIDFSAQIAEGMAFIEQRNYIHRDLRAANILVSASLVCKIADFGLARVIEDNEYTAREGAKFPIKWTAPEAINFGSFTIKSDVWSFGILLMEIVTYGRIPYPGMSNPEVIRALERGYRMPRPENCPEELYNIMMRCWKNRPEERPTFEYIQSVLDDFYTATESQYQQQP

[10] = target: Jak2 (UniProt O60674); assay: as above
Chain of Jak2 (O60674 whole entry, looked up): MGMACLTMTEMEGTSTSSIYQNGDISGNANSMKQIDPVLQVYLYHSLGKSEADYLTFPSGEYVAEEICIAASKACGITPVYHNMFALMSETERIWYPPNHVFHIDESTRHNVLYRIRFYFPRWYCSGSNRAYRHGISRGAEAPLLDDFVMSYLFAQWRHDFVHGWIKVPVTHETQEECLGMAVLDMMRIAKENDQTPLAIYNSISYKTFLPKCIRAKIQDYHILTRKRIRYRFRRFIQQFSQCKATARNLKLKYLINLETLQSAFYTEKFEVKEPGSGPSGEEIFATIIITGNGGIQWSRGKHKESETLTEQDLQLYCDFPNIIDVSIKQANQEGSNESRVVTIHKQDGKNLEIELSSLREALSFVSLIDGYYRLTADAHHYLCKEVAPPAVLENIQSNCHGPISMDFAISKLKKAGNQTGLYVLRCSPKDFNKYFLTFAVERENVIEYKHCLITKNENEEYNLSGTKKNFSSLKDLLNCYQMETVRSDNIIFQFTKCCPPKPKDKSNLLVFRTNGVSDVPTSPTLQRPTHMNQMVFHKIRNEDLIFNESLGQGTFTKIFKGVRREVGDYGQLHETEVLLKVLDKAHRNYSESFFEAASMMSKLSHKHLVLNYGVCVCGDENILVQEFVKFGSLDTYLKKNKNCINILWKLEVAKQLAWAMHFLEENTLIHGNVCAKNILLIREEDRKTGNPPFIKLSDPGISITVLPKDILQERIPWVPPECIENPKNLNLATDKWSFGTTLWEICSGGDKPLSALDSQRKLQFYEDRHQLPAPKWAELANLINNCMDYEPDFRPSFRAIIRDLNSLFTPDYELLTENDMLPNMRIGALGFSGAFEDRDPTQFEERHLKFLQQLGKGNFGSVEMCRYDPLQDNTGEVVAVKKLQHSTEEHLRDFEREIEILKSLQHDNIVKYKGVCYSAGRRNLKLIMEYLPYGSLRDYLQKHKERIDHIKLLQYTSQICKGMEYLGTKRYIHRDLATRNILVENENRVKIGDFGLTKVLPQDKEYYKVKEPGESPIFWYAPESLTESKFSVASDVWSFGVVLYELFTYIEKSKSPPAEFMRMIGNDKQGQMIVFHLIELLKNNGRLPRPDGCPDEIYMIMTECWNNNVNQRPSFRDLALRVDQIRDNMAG

[11] = target: MERTK (UniProt Q12866); assay: as above
Chain of MERTK (Q12866 whole entry, looked up): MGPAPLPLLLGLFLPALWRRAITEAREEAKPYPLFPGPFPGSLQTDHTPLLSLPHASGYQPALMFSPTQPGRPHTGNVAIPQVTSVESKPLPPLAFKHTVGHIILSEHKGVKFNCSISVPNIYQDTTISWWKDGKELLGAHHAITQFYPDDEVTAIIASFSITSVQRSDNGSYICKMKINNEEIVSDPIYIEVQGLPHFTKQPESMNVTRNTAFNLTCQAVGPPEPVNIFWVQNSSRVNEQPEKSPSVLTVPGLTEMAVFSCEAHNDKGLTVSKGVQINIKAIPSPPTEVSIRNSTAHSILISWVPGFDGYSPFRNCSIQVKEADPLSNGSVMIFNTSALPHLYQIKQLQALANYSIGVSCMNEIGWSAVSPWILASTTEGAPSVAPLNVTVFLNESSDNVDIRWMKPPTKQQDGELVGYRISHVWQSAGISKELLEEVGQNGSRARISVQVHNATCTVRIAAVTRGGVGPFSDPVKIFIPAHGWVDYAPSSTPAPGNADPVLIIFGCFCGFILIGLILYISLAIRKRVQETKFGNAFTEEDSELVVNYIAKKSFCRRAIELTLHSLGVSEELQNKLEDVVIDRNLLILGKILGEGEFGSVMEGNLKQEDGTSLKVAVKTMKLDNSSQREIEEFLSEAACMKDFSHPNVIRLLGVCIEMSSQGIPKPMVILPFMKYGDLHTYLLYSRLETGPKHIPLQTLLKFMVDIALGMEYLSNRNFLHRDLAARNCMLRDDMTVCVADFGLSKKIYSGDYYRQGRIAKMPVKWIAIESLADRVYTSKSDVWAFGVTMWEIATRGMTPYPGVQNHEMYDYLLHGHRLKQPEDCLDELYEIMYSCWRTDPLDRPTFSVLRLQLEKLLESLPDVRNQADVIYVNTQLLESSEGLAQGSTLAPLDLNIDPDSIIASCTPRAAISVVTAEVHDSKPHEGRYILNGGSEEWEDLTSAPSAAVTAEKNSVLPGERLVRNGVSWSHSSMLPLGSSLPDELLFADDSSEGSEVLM

[12] = system: c-Abl (mouse); assay: as above
[13] = system: c-Src; assay: as above
[14] = target: Grb2 SH2 (UniProt P62993); assay: SH2 binding enrichment of the phosphorylated peptide, bacterial display (enrichment ratio); higher = better substrate or ligand; peptides without Tyr show the background
[15] = target: SHP2-C SH2; assay: as above
[16] = target: c-Src SH2; assay: as above
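Throughout, for SH2 binding enrichment of the phosphorylated peptide, bacterial display: peptide library displayed on the E. coli surface as eCPX fusions, selected cells deep-sequenced, score is each peptide's frequency after selection divided by its frequency in the input.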
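Throughout, for phosphorylation enrichment, bacterial display: 11-residue human phosphosite peptides and single-mutation variants displayed on the E. coli surface, counted by deep sequencing, each peptide's frequency after selection divided by its frequency in the unselected input library; frequency after pTyr selection over input frequency; kinase dosed for 20-30% of maximal phosphorylation in three min.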

Chain of EPHB2 (P29323 whole entry, looked up): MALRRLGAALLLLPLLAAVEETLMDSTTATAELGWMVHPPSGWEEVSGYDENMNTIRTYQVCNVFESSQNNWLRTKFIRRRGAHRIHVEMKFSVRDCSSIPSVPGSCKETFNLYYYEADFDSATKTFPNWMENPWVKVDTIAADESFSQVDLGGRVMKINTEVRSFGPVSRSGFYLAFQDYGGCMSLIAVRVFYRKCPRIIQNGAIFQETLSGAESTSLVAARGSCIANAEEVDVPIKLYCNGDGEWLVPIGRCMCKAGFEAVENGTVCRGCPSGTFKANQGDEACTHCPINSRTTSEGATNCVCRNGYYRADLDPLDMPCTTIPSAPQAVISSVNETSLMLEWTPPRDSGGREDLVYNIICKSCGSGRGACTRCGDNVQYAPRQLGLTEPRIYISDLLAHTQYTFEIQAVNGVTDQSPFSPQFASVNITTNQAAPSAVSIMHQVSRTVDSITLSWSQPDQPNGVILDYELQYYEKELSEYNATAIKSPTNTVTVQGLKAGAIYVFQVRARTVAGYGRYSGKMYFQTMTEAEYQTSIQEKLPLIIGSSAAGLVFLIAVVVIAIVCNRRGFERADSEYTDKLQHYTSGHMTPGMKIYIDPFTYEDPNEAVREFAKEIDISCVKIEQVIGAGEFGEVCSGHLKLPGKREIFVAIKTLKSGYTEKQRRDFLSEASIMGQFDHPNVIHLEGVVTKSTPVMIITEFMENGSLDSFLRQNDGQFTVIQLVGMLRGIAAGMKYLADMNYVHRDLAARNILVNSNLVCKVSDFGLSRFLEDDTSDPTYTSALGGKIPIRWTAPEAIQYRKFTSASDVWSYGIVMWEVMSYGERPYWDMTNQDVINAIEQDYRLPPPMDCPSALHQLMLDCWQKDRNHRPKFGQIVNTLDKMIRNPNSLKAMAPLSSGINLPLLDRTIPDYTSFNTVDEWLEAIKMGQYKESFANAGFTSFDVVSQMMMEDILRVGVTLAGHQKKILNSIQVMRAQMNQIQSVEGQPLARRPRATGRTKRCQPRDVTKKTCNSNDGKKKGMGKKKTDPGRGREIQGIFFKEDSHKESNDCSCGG

Row | Sequence | SH2 binding enrichment [14] | SH2 binding enrichment [15] | SH2 binding enrichment [16] | phosphorylation enrichment [1] | phosphorylation enrichment [2] | phosphorylation enrichment [3] | phosphorylation enrichment [4] | phosphorylation enrichment [5] | phosphorylation enrichment [6] | phosphorylation enrichment [7] | phosphorylation enrichment [8] | phosphorylation enrichment [9] | phosphorylation enrichment [10] | phosphorylation enrichment [11] | phosphorylation enrichment [12] | phosphorylation enrichment [13]
1 | GFRPVYSEDEQ [CHST6_Y362_YF] | 0.904 | 0.73 | 0.645 | 1.35 | 0.754 | 0.699 | 0.584 | 0.835 | 0.617 | 1.49 | 0.592 | 0.615 | 1.47 | 0.559 | 1.27 | 0.836
2 | GGGGSYNDFGN [HNRNPA1_Y312] | 0.745 | 0.659 | 0.513 | 0.599 | 0.433 | 0.39 | 0.471 | 0.5 | 0.33 | 0.791 | 1.17 | 0.474 | 0.579 | 0.422 | 0.458 | 0.441
3 | GGMAEYTRLHN [EHHADH_Y4] | 0.864 | 0.742 | 1.29 | 0.609 | 0.494 | 0.374 | 0.382 | 0.442 | 0.359 | 0.597 | 0.32 | 0.451 | 0.691 | 0.378 | 0.532 | 0.421
4 | GIATGYLVLKE [DNMT3B_Y588] | 0.744 | 2.28 | 0.717 | 0.737 | 0.511 | 0.558 | 0.464 | 0.611 | 0.376 | 0.77 | 0.385 | 0.511 | 0.836 | 0.357 | 0.533 | 0.4
5 | GKTQQYECKWY [BCR_Y751_D752E] | 0.677 | 0.584 | 0.735 | 0.936 | 0.507 | 0.6 | 0.499 | 0.642 | 0.549 | 1.05 | 0.443 | 0.447 | 0.97 | 0.487 | 0.681 | 0.522
6 | GLAELYEFQKK [CKAP5_Y1854_K1857Q_YF] | 0.666 | 0.473 | 0.795 | 0.973 | 0.59 | 0.564 | 0.539 | 0.94 | 0.656 | 0.857 | 0.64 | 1.23 | 0.58 | 0.526 | 0.428 | 0.937
7 | GLAKGYIDPET [CSNK1G2_Y195_E194G] | 0.823 | 0.922 | 0.5 | 1.04 | 0.509 | 0.588 | 0.476 | 0.48 | 0.482 | 0.795 | 0.558 | 0.513 | 0.694 | 0.472 | 0.454 | 0.554

Continued, in another order:

Row | SH2 binding enrichment [14] | SH2 binding enrichment [15] | SH2 binding enrichment [16] | Sequence | phosphorylation enrichment [1] | phosphorylation enrichment [2] | phosphorylation enrichment [3] | phosphorylation enrichment [4] | phosphorylation enrichment [5] | phosphorylation enrichment [6] | phosphorylation enrichment [7] | phosphorylation enrichment [8] | phosphorylation enrichment [9] | phosphorylation enrichment [10] | phosphorylation enrichment [11] | phosphorylation enrichment [12] | phosphorylation enrichment [13]
8 | 0.829 | 7.82 | 1.03 | GENTVYAQVFN [LY9_Y603_M602V] | 0.819 | 1.53 | 1.23 | 0.599 | 0.616 | 7 | 0.918 | 6.74 | 6.46 | 0.718 | 2.21 | 2.92 | 5.05
9 | 0.788 | 0.832 | 0.405 | GFQPEYGQPAG [SYP_Y278_D277E_YF] | 0.685 | 0.501 | 0.542 | 0.479 | 0.917 | 0.506 | 0.741 | 0.592 | 0.4 | 0.723 | 0.424 | 0.586 | 0.671
10 | 1.17 | 0.861 | 0.598 | GFRVFYTPDSR [PTPRF_Y451_YF] | 0.962 | 0.562 | 0.448 | 0.52 | 0.64 | 0.462 | 1.19 | 0.468 | 0.564 | 1.03 | 0.37 | 0.612 | 0.449
11 | 0.779 | 0.591 | 0.409 | GGFTCYCDGKK [PROS1_Y266_YF] | 1.12 | 0.608 | 0.515 | 0.457 | 0.865 | 0.511 | 1.19 | 0.485 | 0.484 | 0.998 | 0.419 | 0.758 | 0.354
12 | 0.821 | 0.767 | 0.591 | GGQEDYDRLRP [RAC3_Y64_A59G] | 1.17 | 0.566 | 0.691 | 0.528 | 0.624 | 0.522 | 0.948 | 0.458 | 0.759 | 0.861 | 0.461 | 0.616 | 0.494
13 | 0.866 | 0.645 | 0.462 | GIFEDYVEGLR [MYL6_Y89_T85I_YF] | 1.25 | 0.787 | 0.7 | 0.567 | 0.793 | 0.607 | 1.17 | 0.7 | 0.484 | 1.22 | 0.393 | 0.857 | 0.536
14 | 0.826 | 0.557 | 0.568 | GLRYGYGGLGG [KRTAP20-2_Y15_V17G] | 0.507 | 0.349 | 0.31 | 0.339 | 0.412 | 0.334 | 0.564 | 0.349 | 0.329 | 0.44 | 0.349 | 0.431 | 0.398
15 | 0.895 | 14.7 | 1.28 | GLTSTYAGIRK [ROBO1_Y932] | 0.525 | 0.303 | 0.492 | 0.342 | 0.372 | 0.521 | 0.66 | 1.46 | 6.69 | 0.548 | 0.497 | 0.724 | 1.52
16 | 1.27 | 1.31 | 1 | GMRHGHGVRQS [JPH2_Y141_Y141H] | 0.646 | 0.775 | 0.45 | 0.471 | 0.696 | 0.529 | 0.803 | 0.419 | 0.495 | 0.975 | 0.462 | 1.28 | 0.529
